± gives the uncertainty stated by the source.

This data set can be described thus: amyloid nucleation score (Sup35N fusion, yeast selection) (log enrichment); library NNK3; higher = more nucleation; inactive = no reads after selection. Summed up: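 After 24 hours of induction with 100 μM copper sulfate, psi-negative yeast expressing peptides of 20 random codons fused to Sup35N were grown for 7 days at 30°C on medium lacking adenine and uracil. Input and output plasmid inserts were sequenced with Illumina, and sequences with under 100 input reads were discarded. Scores for nucleation are the DiMSum log enrichment of output over input reads, centred on the mode score of non-aggregating sequences.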
As for VWSVHSHTQPMHSWSVRSAG, the amyloid nucleation score entry is “inactive”.
INFLCTDAFTMKFTGAYGKH showed an amyloid nucleation score of 2.4 ± 0.054.
To QLQSYRQGTFGDQYSPSVHS belongs “inactive”; to DFSSWSFYHYPLVGQSSYTS, “inactive”; to TNCCTCVMEASGNEGIGTLN, 0.367 ± 0.23.
To DWSWFK belongs “inactive”; to ILKVLFKF, 1.13 ± 0.1; to VCFVWFRRWPTIPR, “inactive”.
Regarding VYDVSQVGLSRSSFFGAVQA, the amyloid nucleation score result was “inactive”.
With WVHRIAS, the amyloid nucleation score result is “inactive”.
To PGDTQITYTGLSEFWCPGVA belongs “inactive”.
To RHGVTMRLSCQTWHFAFHLR belongs “inactive”; to NSRFIMHHVGRAFDCDAYLF, -0.194 ± 0.8.
To SGLYMCRISFSPLIVMIVYG belongs 1.3 ± 0.096; to RVDRLALLCSTSGINSDFGR, “inactive”.
Consider PCDQD, for which the amyloid nucleation score result is “inactive”.
To CMAFLHPLF belongs “inactive”.
Regarding TIVRY, the amyloid nucleation score is 1.1 ± 0.21.
The figure for YISFFGGFANNGYCWWICAS is 1.81 ± 0.069; for IFCMFYGSMQAQTIKCNVTH it is 1.19 ± 0.093; for TSWTGWVRCHIGSSNISALT it is “inactive”.
To EDFNRILVRNVRS belongs “inactive”.
LIADHIVRSSSLMSWFSPSR: the amyloid nucleation score entry is “inactive”.
The entry for LSHYVMVTYRAKGRMAGRIW is “inactive”.
As to HRKMHDT, the amyloid nucleation score entry is “inactive”.
The figure for ERRIDG is 1.23 ± 0.094; for VINVYTAINGSWALN it is 2.17 ± 0.059.
For CFRCS, the amyloid nucleation score entry was “inactive”.
To GVTQVIWVAYNILFLNNCWM belongs “inactive”.
With IYCVEERHFLNIYSRMSYYS, the amyloid nucleation score entry was “inactive”.
To RVRYGGNKMHNSRKLACGQG belongs 0.743 ± 0.18.
To VHCHV belongs -0.536 ± 0.93.
To FISRRIRNVILWCYFM belongs “inactive”.
Turning to WSSSW, the amyloid nucleation score result was “inactive”.
The figure for IVTNDVCVFSVQYSRFVVRL is 0.416 ± 0.23; for TMLVFGIVNTLVVDNLRSSI it is 2.01 ± 0.094; for SERQTSLRHLGLRHLFK it is 1.22 ± 0.16.
The entry for NFPYLAVFLRGFSFSVIDC is “inactive”; for KEFAIESTVLFYTVLLKAAH it is “inactive”.
To MSMLKFIYFDYSMDSLHIIW belongs “inactive”; to MVVMRKSVETTYYWLILAIF, “inactive”.
Regarding YINHSSSTA, the amyloid nucleation score entry is “inactive”.
With NRGNSIRRDNWFRVILRTCH, the amyloid nucleation score result is “inactive”.
To RFGVSKLARAS belongs “inactive”.
The entry for NCRFEGLDKSTS is “inactive”.
In the case of LLVCSWC, the amyloid nucleation score was determined as 2.1 ± 0.093.
In the case of FSIDTNGSCYRIDARHVK, the amyloid nucleation score result is “inactive”.
The entry for SLPCSKCAVKLFL is “inactive”.
To MRRYIRNIKAHMCVIVRVYL belongs “inactive”.
To PFWWPRKQLYVSQSRKTTAS belongs “inactive”; to SNRIYHVVFID, 1.89 ± 0.1.
As to ILTHTEVCIPSVRTLSGCKG, the amyloid nucleation score entry is “inactive”.
To YGLFGCLTSVWACRGCYGVV belongs “inactive”; to VSWLCSMKDICPHCDEINYR, 1.8 ± 0.062; to FLMCWVLIVV, “inactive”.
The figure for CGIRHTVLVVSRVGGYVWCL is -0.156 ± 1.1.
The entry for KINRVSLLVLGH is “inactive”.
For EENTVSSTAIKNVVYSQFQV, the amyloid nucleation score entry was “inactive”.
QGNRS: the amyloid nucleation score result is “inactive”.
To FMCLFMNHYLKFGTSFPGRG belongs 0.974 ± 0.14; to NTRSPAESMHHPLMAMAVKN, “inactive”; to ILLSSHSSECNNALIRRF, 1.46 ± 0.074.
To LDTYTRNYLD belongs “inactive”.
To GGLCLLAVLWKFLMSALVIR belongs “inactive”.
In turn, CIYCIVA yielded an amyloid nucleation score of 2.64 ± 0.087.
In the case of LCIPVDFVGGTIRLCVL, the amyloid nucleation score entry is “inactive”.
YGLSFHDLYGCCLRLGIGMD gave an amyloid nucleation score of 1.63 ± 0.081.
To KRFDMMHIQTYEMGWSPSVR belongs “inactive”.
The entry for EGSIQMWTGTSLLDTRIWGG is “inactive”; for FLLEYYVCMFAVWSIWGMGH it is 0.317 ± 0.75.
To GLCWRMLTFLWSFVSMENNG belongs -0.565 ± 1.1; to KDLNENGRLFIIDPIIFSMF, “inactive”; to HPMRGDVGSRAVFRMGHFIH, “inactive”.
Turning to NKEMIFANYSAGRRYVRYST, the amyloid nucleation score entry was “inactive”.
The entry for RFAVTSVMLTSETRDGFDHA is “inactive”; for AVASSRYNLEYLSRSLCVMS it is “inactive”; for LLVVYIFTGPLTVPHVWTIE it is “inactive”.
The figure for LMYAVLGTQTVSLSAFKSR is -0.3 ± 1.1; for VSDRVSLSVGG it is “inactive”; for GGCCAYCSLDLVWMFDDRSV it is 2.16 ± 0.081.
The entry for IDSLSAIGKSWTQGESRSDR is “inactive”; for CLNGSCAMLSGLVCLLCNRQ it is 2.38 ± 0.058; for NACTF it is “inactive”.
Substance FHRTEGCECVASLKVARGVV showed an amyloid nucleation score of 0.223 ± 0.31.
To YFSRMVKVRSNI belongs “inactive”; to SIWSALSDLLLSKREE, “inactive”; to KCAALLDPDSASGGRCEWNC, 1.08 ± 0.17.
The figure for YVIICYST is -0.539 ± 1.
As for FPHSSGCYDAVTWSSWNGGH, the amyloid nucleation score result was “inactive”.
To GGVTYRQDLTRYLSG belongs “inactive”.
Take IIIVILLQNWTSVRAVKPIV: the amyloid nucleation score result is “inactive”.
To LFELDKLNRVHLNGVMGVII belongs “inactive”; to FYYSVHFLF, “inactive”.
To MYMIWSWCVQMLVNLNHAMA belongs “inactive”; to IYDRMGGHL, “inactive”; to MCGLVTFWRALRGNRGRY, “inactive”.
The entry for AYSDFRLTLSSYIVRANETC is “inactive”; for YSNHLD it is “inactive”; for AKSPL it is -0.681 ± 0.96.
In the case of NMKSCFHRMDPHWGTGFHSL, the amyloid nucleation score result was “inactive”.
To LMHGPMLVFRFVASNSCRER belongs “inactive”; to VSANSMFIRGLIDSILAELA, “inactive”; to IIWAVRKGTPSSRRVTWAGK, “inactive”.
The entry for GNRLALVYLGRILPL is “inactive”; for ASAEEGWQNCEK it is “inactive”.
The entry for SPTLPGCLVLEIINDNI is “inactive”; for RCLAPGCRIVNRFLSINYKS it is “inactive”; for CTNCNAKAYPWGTVSMPREW it is “inactive”.
On to FNITGRVSYSIVTLCFMQCK, for which the amyloid nucleation score stood at 2.75 ± 0.069.
Take SRKLCSHR: the amyloid nucleation score is -0.557 ± 0.66.
The entry for SSDSIKTWWKNTNVICVSGG is “inactive”.
To LDYNVRVGIVSRFTQLTHVN belongs “inactive”.
Turning to KPCSRVSWNVVQVV, the amyloid nucleation score entry is “inactive”.
The entry for IGGDSRHI is “inactive”; for DISPYFLYE it is “inactive”; for YVNLCLGANPRSYMFKYGTH it is 0.197 ± 0.66.
The figure for VSSEGYIADTA is 0.292 ± 0.57.
To EVDFVALIPCSQTVLFTVEV belongs “inactive”.
VGQWYGFMFWLLLLIIQS: the amyloid nucleation score result is “inactive”.
The entry for VFMKNLNKIDILTSGLDHIY is “inactive”; for MWLVFLTKQNYNNKVQTG it is “inactive”.
The entry for PKAGALQQFMMRHSSHFQLS is “inactive”.
To TGFLGWDACGALRIFLTVRW belongs “inactive”; to IVTVLNSVLGKGFQQAPRRG, “inactive”.
Regarding YICTNNLTYNSMMQIFSKIM, the amyloid nucleation score came out at 0.394 ± 0.33.
The entry for LTGCRL is “inactive”; for IVPSNSARLLSVKALDLPIS it is “inactive”; for YWLGA it is “inactive”.
ARFMC: the amyloid nucleation score result was “inactive”.
Consider CSGSDKVWTCLFLYAKKPRW, for which the amyloid nucleation score result was “inactive”.
The entry for CWRVYYLNVWVEVES is “inactive”; for SRTAKSFDATWMITFYGWGP it is “inactive”.
The entry for VKFSTRNFNKVQLHVFTTCM is “inactive”.

(Values after the supplement of paper PMC12042874.)
